From paper PMC3177959 come the findings set out here.

The target of the assay is M3 muscarinic acetylcholine receptor labeled at its N terminus with ECFP (human) (UniProt P20309). The assay can be described thus: FRAP of the mobile partner with the other partner immobilised.
Sequence of UniProt P20309 (P20309 whole entry): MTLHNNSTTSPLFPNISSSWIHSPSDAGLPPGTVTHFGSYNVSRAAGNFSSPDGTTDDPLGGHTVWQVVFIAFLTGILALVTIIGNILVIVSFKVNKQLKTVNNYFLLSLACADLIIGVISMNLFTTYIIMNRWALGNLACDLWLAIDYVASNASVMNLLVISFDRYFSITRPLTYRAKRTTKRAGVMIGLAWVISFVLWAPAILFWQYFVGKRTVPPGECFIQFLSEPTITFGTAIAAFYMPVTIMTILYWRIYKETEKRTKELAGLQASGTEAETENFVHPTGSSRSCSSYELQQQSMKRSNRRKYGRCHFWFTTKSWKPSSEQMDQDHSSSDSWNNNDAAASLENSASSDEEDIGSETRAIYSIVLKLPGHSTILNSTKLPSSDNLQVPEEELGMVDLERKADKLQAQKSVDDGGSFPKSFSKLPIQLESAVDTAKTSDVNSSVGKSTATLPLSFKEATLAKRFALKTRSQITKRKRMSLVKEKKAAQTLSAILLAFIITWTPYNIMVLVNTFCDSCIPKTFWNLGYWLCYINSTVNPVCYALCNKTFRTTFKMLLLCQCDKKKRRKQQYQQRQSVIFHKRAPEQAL

For the substance “Gq heterotrimer: venus-labeled Gαq with unlabeled Gβ1 and Gγ2 (from UniProt P21279;P62873;P59768) (complex)”, the unrecovered fraction five minutes after photobleaching was 0.23.
